In patent publication US20210040209A1 (Janssen / Centocor, published 2021):

Tests used:
[1] = target: human PSMA on cells (LNCaP, C4-2B, LNCaP AR, 22RV1 prostate tumor cell lines; human prostate tissue) (human, UniProt Q04609 1-750); test: cell-based or functional assay
[2] = target: T1, human CD3 epsilon on cells (primary human T cells; mononuclear cells of human tissue) (human, UniProt P07766 23-207); test: tissue cross-reactivity staining of cryosections of normal human tissues
T1 construct: Part of the TCR/CD3 complex on T cells; also called CD3ε; cell-surface CD3ε
T1 sequence (P07766 23-207 limits assumed): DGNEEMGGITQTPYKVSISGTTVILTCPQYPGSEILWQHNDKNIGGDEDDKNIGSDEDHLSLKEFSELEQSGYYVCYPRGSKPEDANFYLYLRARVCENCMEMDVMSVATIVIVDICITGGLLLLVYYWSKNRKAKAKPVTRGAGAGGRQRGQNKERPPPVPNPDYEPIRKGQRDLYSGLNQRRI
Description: A GLP cross-reactivity study was conducted in cryosections of normal human tissues with the study drug and its anti-PSMA parental (bivalent) antibody (positive control). No unanticipated tissue cross-reactivity of the study drug was observed. Membrane staining of epithelial cells and staining of extracellular material in the prostate with both the study drug and the anti-PSMA parental antibody was anticipated due to PSMA expression in these tissues. Staining of mononuclear cells with the study drug only was expected based on the expression of CD3ε on T cells.

Chain of human PSMA on cells (LNCaP, C4-2B, LNCaP AR, 22RV1 prostate tumor cell lines; human prostate tissue) (Q04609 whole entry): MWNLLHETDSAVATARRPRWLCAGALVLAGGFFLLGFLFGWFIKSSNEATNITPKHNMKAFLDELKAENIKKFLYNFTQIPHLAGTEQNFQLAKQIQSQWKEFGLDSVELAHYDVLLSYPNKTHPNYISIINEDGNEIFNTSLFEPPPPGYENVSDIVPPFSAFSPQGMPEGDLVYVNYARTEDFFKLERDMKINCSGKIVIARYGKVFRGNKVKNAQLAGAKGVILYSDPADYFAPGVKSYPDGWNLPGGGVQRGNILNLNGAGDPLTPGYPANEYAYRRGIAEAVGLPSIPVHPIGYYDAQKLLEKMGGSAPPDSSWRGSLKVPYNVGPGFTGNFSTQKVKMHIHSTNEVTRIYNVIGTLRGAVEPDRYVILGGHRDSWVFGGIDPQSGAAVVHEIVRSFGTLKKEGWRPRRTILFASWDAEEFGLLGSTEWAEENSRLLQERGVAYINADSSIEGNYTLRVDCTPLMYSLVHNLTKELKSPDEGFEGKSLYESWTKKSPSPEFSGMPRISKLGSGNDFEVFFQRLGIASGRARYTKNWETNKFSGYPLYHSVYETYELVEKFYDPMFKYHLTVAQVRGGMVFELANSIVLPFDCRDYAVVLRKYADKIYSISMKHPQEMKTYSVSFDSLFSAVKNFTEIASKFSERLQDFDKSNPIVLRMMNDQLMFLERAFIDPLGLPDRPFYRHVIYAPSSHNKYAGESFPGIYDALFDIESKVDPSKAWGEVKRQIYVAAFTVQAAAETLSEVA

B1: PS3B27 PSMAxCD3 bispecific antibody (PSMB127 x CD3B219) (bispecific antibody, human IgG4 S228P, kappa, lambda, F234A L235A)
heavy 1: not shown
light 1: not shown
heavy 2: EVQLVESGGGLVQPGGSLRLSCAASGFTFNTYAMNWVRQAPGKGLEWVARIRSKYNNYATYYAASVKGRFTISRDDSKNSLYLQMNSLKTEDTAVYYCARHGNFGNSYVSWFAYWGQGTLVTVSSASTKGPSVFPLAPCSRSTSESTAALGCLVKDYFPEPVTVSWNSGALTSGVHTFPAVLQSSGLYSLSSVVTVPSSSLGTKTYTCNVDHKPSNTKVDKRVESKYGPPCPPCPAPEAAGGPSVFLFPPKPKDTLMISRTPEVTCVVVDVSQEDPEVQFNWYVDGVEVHNAKTKPREEQFNSTYRVVSVLTVLHQDWLNGKEYKCKVSNKGLPSSIEKTISKAKGQPREPQVYTLPPSQEEMTKNQVSLTCLVKGFYPSDIAVEWESNGQPENNYKTTPPVLDSDGSFLLYSKLTVDKSRWQEGNVFSCSVMHEALHNHYTQKSLSLSLGK
light 2: QTVVTQEPSLTVSPGGTVTLTCRSSTGAVTTSNYANWVQQKPGQAPRGLIGGTNKRAPGTPARFSGSLLGGKAALTLSGVQPEDEAEYYCALWYSNLWVFGGGTKLTVLGQPKAAPSVTLFPPSSEELQANKATLVCLISDFYPGAVTVAWKADSSPVKAGVETTTPSKQSNNKYAASSYLSLTPEQWKSHRSYSCQVTHEGSTVEKTVAPTECS
notes: also called the study drug
How did the “CD25 expression on T cells co-cultured with C4-2B cells, median EC50” value [1] turn out when B1 was run?
The value was 0.06 nM.

What about the “T cell dependent cytotoxicity of C4-2B cells, median EC50” value [1] of the same binder?
Its value is 0.08 nM.

Does B1 bind [2]?
Result: binds
